This note sets out measurements from publication PMC9774250.

The test system of series [1] is apo-YgaV (His-tagged) (Escherichia coli (WT genomic DNA; BW25113?)). As to the kind of experiment: EMSA. The settings on record: EMSA: 50 nM probe, 25 mM Tris-HCl pH 8.0, 100 mM NaCl, 2 mM MgCl2, 6% glycerol, 50 mg/mL heparin (so in the source), room temperature 30 min, footprint: 100 nM DNA …. A general note: Mobility shift assays separate free from complexed probe on a gel.

Series [2] deals with heme-YgaV (His-tagged, hemin-reconstituted) (Escherichia coli (WT genomic DNA; BW25113?)). Description: EMSA. The note with it: heme; 10 mM Na2S (oxidized); EMSA: 50 nM probe, 25 mM Tris-HCl pH 8.0, 100 mM NaCl, 2 mM MgCl2, 6% glycerol, 50 mg/mL heparin (so in the source), room temperature 30 min; footprint: 100 nM DNA ….

Regarding katG promoter, the binding signal in series [1] (1 mM DTT (reduced), scale: fold higher YgaV concentration for shift than ygaV promoter) stood at 20.

For the substance ygaVP promoter, the binding signal (fold higher EC50 than DTT-reduced) in series [1] (10 mM Na2S (oxidized)) and in series [2] was 5 throughout.
